Data published in the supplement of paper PMC10567573.
± gives the standard deviation.

Experiment: protein stability index of a GFP-peptide fusion (GPS, HEK-293T) (PSI 1-6); higher = more stable
Settings: c terminus: a fixed tail appended
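Further: 24-mer peptide tiles fused after GFP, lentivirally expressed, FACS-sorted into six equal bins by GFP/DsRed ratio, decoded by Illumina sequencing, PSI is the read-weighted mean bin number.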

Row | Sequence | protein stability index (treatment: DMSO) | protein stability index (treatment: MLN4924 1 uM, 8 h)
1 | FVHGLEDEMYEVRIAAVEALCMLA [INTS4] | 2.34 ± 0.61 | 2.23 ± 0.46
2 | QSSGKVMYFSSLFPYVVLACFLVR [SLC6A17] | 2.6 ± 0.76 | 2.41 ± 0.24
3 | GGLIYWIGLTKAGMEGDWSWVDDT [CD207] | 2.12 ± 0.7 | 3.07 ± 1.4
4 | GKKVAVVLMDTQGAFDSQSTVKDC [ATL3] | 3.46 ± 0.87 | 3.66 ± 0.44
5 | LQQLRARLQGLEADCVRGPDGVCL [PBXIP1] | 2.7 ± 0.29 | 3.01 ± 0.35
6 | ERRRGPAAGEQLQQQHVSCQVFPE [ATP23] | 4.6 ± 0.21 | 4.72 ± 0.36
7 | LPELLLGALPVGSNLTSNLASLVS [RETREG3] | 2.17 ± 0.2 | 2.17 ± 0.28
8 | VHHLPLSTEKVVQETVLVEERRVV [EPB41L3] | 4.3 ± 0.14 | 4.43 ± 0.27
9 | RVKLTKRSGHTQTDYINASFMDGY [PTPN9] | 2.75 ± 0.14 | 2.87 ± 0.27
10 | KCFHEIITIGYRVYHSYDLPWFRT [CDS1] | 2.88 ± 0.49 | 2.87 ± 0.56
11 | GEPLEKVASVGNSRPTGQQLESLG [KISS1] | 5.04 ± 0.25 | 5.1 ± 0.13
12 | HAIYSLSYPMRRSYRYKLLNWAYQ [STEAP1] | 2.33 ± 0.71 | 2.63 ± 0.61
13 | NLQSLKTPTLKVFMHENLYFTNRK [DCAF4] | 2.73 ± 0.26 | 2.65 ± 0.2
14 | HVKKLQQKVATLEKRNRQLRERVK [CCDC3] | 3.72 ± 0.26 | 4 ± 0.61
15 | MVSALRGAPLIRVHSSPVSSPSVS [SPACA3] | 2.85 ± 0.39 | 3.08 ± 0.3
16 | FEEFLVMMVRQMKEDAKGKSEEEL [TNNC2] | 3.48 ± 0.37 | 3.28 ± 0.35
17 | LVGLTVIGAFLNLVVLRFLTMNSE [KCNK9] | 3.42 ± 0.46 | 3.42 ± 0.25
18 | GEGLRIYWGSPEEQSLLSRWNPWS [TPRG1] | 2.28 ± 0.2 | 1.9 ± 0.35
19 | DAAVVRPGFLSTAEEETLSRELEP [ALKBH7] | 5.53 ± 0.063 | 5.42 ± 0.17
20 | LADYLVPILAPRIFGSNKWTTEQQ [ARL6IP1] | 2.34 ± 0.49 | 2.16 ± 0.16
21 | EKHCEFKQLALDHFKKTKKMGGKD [ATL3] | 4.64 ± 0.14 | 4.57 ± 0.39
22 | EEEEEEEAAGVVVEEELFHQQGTP [LMNB1] | 5.38 ± 0.31 | 5.47 ± 0.41

Row | Sequence | protein stability index (treatment: DMSO) | protein stability index (treatment: MLN4924 1 uM, 8 h)
23 | YLLHGLECVVAMHQAQLISKIPHI [EIF5] | 3.37 ± 0.11 | 3 ± 0.25
24 | AEISARTMQSMFAKNFHVKAVMKT [PTPRD] | 2.56 ± 0.32 | 2.67 ± 0.39
25 | TLHGVVNESTVCLMSYERRQILHL [TENT5D] | 2.35 ± 0.54 | 2.44 ± 0.4
26 | CRGHTLERSVFSERTEESSAVQYF [CARM1] | 2.81 ± 0.34 | 2.92 ± 0.5
27 | ESGASIEDHNENGHTPLMEAGSAG [ANKRD17] | 5.47 ± 0.25 | 5.35 ± 0.28
28 | WNDFLMCYSSRPLLCWSVWWALST [SLC19A2] | 3.5 ± 0.3 | 3.32 ± 0.46
29 | KKRKVDGLSTEAEQPFIPVEVLVD [PRAME] | 3.8 ± 0.52 | 4.04 ± 0.27
30 | VYSLQDFDTLATVGTGTFGRVHLV [PRKX] | 2.42 ± 0.079 | 2.42 ± 0.37
31 | LNLGSGTGYLSSMVGLILGPFGVN [PCMTD2] | 2.42 ± 0.51 | 2.48 ± 0.38
32 | SEDTLTIHGLPTEGYQALYHAVVE [C22orf31] | 3.19 ± 0.27 | 3.24 ± 0.36
33 | VIRLKQEQHVHNEKSVLKEVSHPF [PRKX] | 3.36 ± 0.062 | 3.62 ± 0.36
34 | GIGDMAFEGDMGAAGGDGELGSPL [PSD2] | 5.37 ± 0.25 | 5.46 ± 0.16
35 | EAETPPNGPDCGYGSFHQQYWLDG [ATE1] | 3.89 ± 0.31 | 4.15 ± 0.11
36 | KAPKKDVIKMLVNDNKVLRYLAVL [EFHC1] | 2.65 ± 0.49 | 2.44 ± 0.58
37 | GDLSPGHGASAPSVSREARQTVPP [PWWP2B] | 5.03 ± 0.17 | 5.25 ± 0.077
38 | AGGYVDVVKVLLESGASIEDHNEN [ANKRD17] | 3.08 ± 0.24 | 3.12 ± 0.36
39 | KTTLARQLQHDFPRALIFSTDDFF [N4BP2L1] | 2.41 ± 0.28 | 2.53 ± 0.25
40 | RESFTSRQKTSGPSVIQEIHQESG [C10orf62] | 4.94 ± 0.099 | 5.02 ± 0.24
41 | CVTLMQGHEGSVSSCHFARDSSFL [WDR88] | 2.28 ± 0.57 | 2.39 ± 0.13
42 | LEAQPYEAVFLRAVKLYNSGDFRS [P3H4] | 2.42 ± 0.27 | 2.23 ± 0.28
43 | TKWVDYSNKYGFGYQLSDHTVGVL [PLK2] | 2.19 ± 0.33 | 2.08 ± 0.19
44 | LKTQSLEGKRKAFYTCASHVTVVI [OR4A15] | 2.91 ± 0.35 | 3.24 ± 0.46
